B1: KAT8 regulatory NSL complex subunit 2, residues 28 to 91; numbered along this chain, Q9H9L4 (parent)
chain: CAFTHRPCSHPRLEGQEFCIKHILEDKNAPFKQCSYISTKNGKRCPNAAPKPEKKDGVSFCAEH

± gives the uncertainty stated by the source.

In this data set the parent is B1. The data set is described as follows: abundance fitness (aPCA) (normalised: wild type 0, dead -1); higher = more abundant; growth selection in yeast, the domain comes from the species named. Particulars: Homo sapiens.
Take CAFTHRPCSHPRLEGQEFCIKHILEDKNAPFKQCSYISTKNGKRWPNAAPKPEKKDGVSFCAEH: the abundance fitness was -0.79 ± 0.056.

On to CAFTHRPCSHPRLEGQEFCIKHILEDKNAPFKQCSYISTKNGKRVPNAAPKPEKKDGVSFCAEH, for which the abundance fitness is -0.465 ± 0.063.

As to CAFTHRPCSHPRLEGQEFCIKHILEDKNAPFKQCSYISTKNGKRYPNAAPKPEKKDGVSFCAEH, the abundance fitness was -0.671 ± 0.1.

As to CAFTHRPCSHPRLEGQEFCIKHILEDKNAPFKQCSYISTKNGKRCPNANPKPEKKDGVSFCAEH, the abundance fitness was -0.143 ± 0.17.

For CAFTHRPCSHPRLEGQEFCIKHILEDKNAPFKQCSYISTKNGKRCPNAEPKPEKKDGVSFCAEH, the abundance fitness is -0.212 ± 0.17.

Turning to CAFTHRPCSHPRLEGQEFCIKHILEDKNAPFKQCSYISTKNGKRCPNATPKPEKKDGVSFCAEH, the abundance fitness was -0.005 ± 0.087.

Take CAFTHRPCSHPRLEGQEFCIKHILEDKNAPFKQCSYISTKNGKRCPNALPKPEKKDGVSFCAEH: the abundance fitness was -0.094 ± 0.044.

CAFTHRPCSHPRLEGQEFCIKHILEDKNAPFKQCSYISTKNGKRCPNAKPKPEKKDGVSFCAEH: the abundance fitness is -0.321 ± 0.077.

Regarding CAFTHRPCSHPRLEGQEFCIKHILEDKNAPFKQCSYISTKNGKRCPNAYPKPEKKDGVSFCAEH, the abundance fitness was -0.261 ± 0.12.

For CAFTHRPCSHPRLEGQEFCIKHILEDKNAPFKQCSYISTKNGKRCPNAFPKPEKKDGVSFCAEH, the abundance fitness was -0.124 ± 0.071.

Turning to CAFTHRPCSHPRLEGQEFCIKHILEDKNAPFKQCSYISTKNGKRCPNAHPKPEKKDGVSFCAEH, the abundance fitness is -0.147 ± 0.11.

As to CAFTHRPCSHPRLEGQEFCIKHILEDKNAPFKQCSYISTKNGKRCPNAIPKPEKKDGVSFCAEH, the abundance fitness was -0.076 ± 0.091.

Take CAFTHRPCSHPRLEGQEFCIKHILEDKNAPFKQCSYISTKNGKRCPNADPKPEKKDGVSFCAEH: the abundance fitness was -0.339 ± 0.13.

For CAFTHRPCSHPRLEGQEFCIKHILEDKNAPFKQCSYISTKNGKRCPNACPKPEKKDGVSFCAEH, the abundance fitness was -0.148 ± 0.091.

For CAFTHRPCSHPRLEGQEFCIKHILEDKNAPFKQCSYISTKNGKRCPNARPKPEKKDGVSFCAEH, the abundance fitness was -0.332 ± 0.053.

As for CAFTHRPCSHPRLEGQEFCIKHILEDKNAPFKQCSYISTKNGKRCPNAPPKPEKKDGVSFCAEH, the abundance fitness was -0.219 ± 0.078.

In the case of CAFTHRPCSHPRLEGQEFCIKHILEDKNAPFKQCSYISTKNGKRCPNAVPKPEKKDGVSFCAEH, the abundance fitness was determined as 0.076 ± 0.078.

As for CAFTHRPCSHPRLEGQEFCIKHILEDKNAPFKQCSYISTKNGKRCPNAGPKPEKKDGVSFCAEH, the abundance fitness is -0.06 ± 0.057.

For the variant CAFTHRPCSHPRLEGQEFCIKHILEDKNAPFKQCSYISTKNGKRCPNAWPKPEKKDGVSFCAEH, the abundance fitness is -0.315 ± 0.067.

Consider CAFTHRPCSHPRLEGQEFCIKHILEDKNAPFKQCSYISTKNGKRCPNAQPKPEKKDGVSFCAEH, for which the abundance fitness was -0.3 ± 0.066.

Take CAFTHRPCSHPRLEGQEFCIKHILEDKNAPFKQCSYISTKNGKRCPNAAGKPEKKDGVSFCAEH: the abundance fitness is -0.211 ± 0.066.

CAFTHRPCSHPRLEGQEFCIKHILEDKNAPFKQCSYISTKNGKRCPNAACKPEKKDGVSFCAEH: the abundance fitness is -0.1 ± 0.074.

As to CAFTHRPCSHPRLEGQEFCIKHILEDKNAPFKQCSYISTKNGKRCPNAAIKPEKKDGVSFCAEH, the abundance fitness was -0.184 ± 0.078.

CAFTHRPCSHPRLEGQEFCIKHILEDKNAPFKQCSYISTKNGKRCPNAALKPEKKDGVSFCAEH: the abundance fitness is -0.131 ± 0.069.

Take CAFTHRPCSHPRLEGQEFCIKHILEDKNAPFKQCSYISTKNGKRCPNAAMKPEKKDGVSFCAEH: the abundance fitness was -0.219 ± 0.13.

On to CAFTHRPCSHPRLEGQEFCIKHILEDKNAPFKQCSYISTKNGKRCPNAAFKPEKKDGVSFCAEH, for which the abundance fitness was -0.135 ± 0.062.

Turning to CAFTHRPCSHPRLEGQEFCIKHILEDKNAPFKQCSYISTKNGKRCPNAAKKPEKKDGVSFCAEH, the abundance fitness is -0.176 ± 0.14.

Take CAFTHRPCSHPRLEGQEFCIKHILEDKNAPFKQCSYISTKNGKRCPNAAHKPEKKDGVSFCAEH: the abundance fitness is -0.135 ± 0.07.

For the variant CAFTHRPCSHPRLEGQEFCIKHILEDKNAPFKQCSYISTKNGKRCPNAADKPEKKDGVSFCAEH, the abundance fitness is -0.302 ± 0.098.

As to CAFTHRPCSHPRLEGQEFCIKHILEDKNAPFKQCSYISTKNGKRCPNAAEKPEKKDGVSFCAEH, the abundance fitness was 0.095 ± 0.2.

Consider CAFTHRPCSHPRLEGQEFCIKHILEDKNAPFKQCSYISTKNGKRCPNAAAKPEKKDGVSFCAEH, for which the abundance fitness is -0.213 ± 0.082.

As to CAFTHRPCSHPRLEGQEFCIKHILEDKNAPFKQCSYISTKNGKRCPRAAPKPEKKDGVSFCAEH, the abundance fitness was -0.062 ± 0.065.

In the case of CAFTHRPCSHPRLEGQEFCIKHILEDKNAPFKQCSYISTKNGKRCPEAAPKPEKKDGVSFCAEH, the abundance fitness was -0.049 ± 0.06.

On to CAFTHRPCSHPRLEGQEFCIKHILEDKNAPFKQCSYISTKNGKRCPDAAPKPEKKDGVSFCAEH, for which the abundance fitness was found to be 0.017 ± 0.066.

For CAFTHRPCSHPRLEGQEFCIKHILEDKNAPFKQCSYISTKNGKRCPAAAPKPEKKDGVSFCAEH, the abundance fitness is -0.002 ± 0.059.

As for CAFTHRPCSHPRLEGQEFCIKHILEDKNAPFKQCSYISTKNGKRCPTAAPKPEKKDGVSFCAEH, the abundance fitness was -0.057 ± 0.083.

CAFTHRPCSHPRLEGQEFCIKHILEDKNAPFKQCSYISTKNGKRCPYAAPKPEKKDGVSFCAEH: the abundance fitness was -0.132 ± 0.083.

For the variant CAFTHRPCSHPRLEGQEFCIKHILEDKNAPFKQCSYISTKNGKRCPVAAPKPEKKDGVSFCAEH, the abundance fitness was -0.063 ± 0.047.

Take CAFTHRPCSHPRLEGQEFCIKHILEDKNAPFKQCSYISTKNGKRCPIAAPKPEKKDGVSFCAEH: the abundance fitness was -0.107 ± 0.078.

With CAFTHRPCSHPRLEGQEFCIKHILEDKNAPFKQCSYISTKNGKRCPKAAPKPEKKDGVSFCAEH, the abundance fitness was -0.076 ± 0.067.

For the variant CAFTHRPCSHPRLEGQEFCIKHILEDKNAPFKQCSYISTKNGKRCPFAAPKPEKKDGVSFCAEH, the abundance fitness is 0.006 ± 0.086.

Consider CAFTHRPCSHPRLEGQEFCIKHILEDKNAPFKQCSYISTKNGKRCPSAAPKPEKKDGVSFCAEH, for which the abundance fitness is -0.035 ± 0.064.

The values above are taken from the Human Domainome abundance scans (Beltran et al. 2025).
